The record followed here is patent publication US20220227872A1 (LUDWIG INSTITUTE FOR CANCER RESEARCH, published 2022).

B1: murine tumor endothelial marker 1 (TEM1) on cells (receptor)
chain: QVPWTPEPRAACGPSSCYALFPRRRTFLEAWRACRELGGNLATPRTPEEAQRVDSLVGVGPANGLLWIGLQRQARQCQPQRPLRGFIWTTGDQDTAFTNWAQPATEGPCPAQRCAALEASGEHRWLEGSCTLAVDGYLCQFGFEGACPALPLEVGQAGPAVYTTPFNLVSSEFEWLPFGSVAAVQCQAGRGASLLCVKQPSGGVGWSQTGPLCPGTGCGPDNGGCEHECVEEVDGAVSCRCSEGFRLAADGHSCEDPCAQAPCEQQCEPGGPQGYSCHCRLGFRPAEDDPHRCVDTDECQIAGVCQQMCVNYVGGFECYCSEGHELEADGISCSPAGAMGAQASQDLRDELLDDGEEGEDEEEPWEDFDGTWTEEQGILWLAPTHPPDFGLPYRPNFPQDGEPQRLHLEPTWPPPLSAPRGPYHSSVVSATRPMVISATRPTLPSAHKTSVISATRPPLSPVHPPAMAPATPPAVFSEHQIPKIKANYPDLPFGHKPGITSATHPARSPPYQPPIISTNYPQVFPPHQAPMSPDTHTITYLPPVPPHLDPGDTTSKAHQHPLLPDAPGIRTQAPQLSVSALQPPLPTNSRSSVHETPVPAANQPPAFPSSPLPPQRPTNQTSSISPTHSYSRAPLVPREGVPSPKSVPQLPSVPSTAAPTALAESGLAGQSQRDDRWLLVALLVPTCVFLVVLLALGIVYCTRCGSHAPNKRITDCYRWVTHAGNKSSTEPMPPRGSLTGVQTCRTSV
notes: also called mTEM1; murine TEM1
B3: human tumor endothelial marker 1 (TEM1) on cells (receptor)
chain: QDPWAAEPRAACGPSSCYALFPRRRTFLEAWRACRELGGDLATPRTPEEAQRVDSLVGAGPASRLLWIGLQRQARQCQLQRPLRGFTWTTGDQDTAFTNWAQPASGGPCPAQRCVALEASGEHRWLEGSCTLAVDGYLCQFGFEGACPALQDEAGQAGPAVYTTPFHLVSTEFEWLPFGSVAAVQCQAGRGASLLCVKQPEGGVGWSRAGPLCLGTGCSPDNGGCEHECVEEVDGHVSCRCTEGFRLAADGRSCEDPCAQAPCEQQCEPGGPQGYSCHCRLGFRPAEDDPHRCVDTDECQIAGVCQQMCVNYVGGFECYCSEGHELEADGISCSPAGAMGAQASQDLGDELLDDGEDEEDEDEAWKAFNGGWTEMPGILWMEPTQPPDFALAYRPSFPEDREPQIPYPEPTWPPPLSAPRVPYHSSVLSVTRPVVVSATHPTLPSAHQPPVIPATHPALSRDHQIPVIAANYPDLPSAYQPGILSVSHSAQPPAHQPPMISTKYPELFPAHQSPMFPDTRVAGTQTTTHLPGIPPNHAPLVTTLGAQLPPQAPDALVLRTQATQLPIIPTAQPSLTTTSRSPVSPAHQISVPAATQPAALPTLLPSQSPTNQTSPISPTHPHSKAPQIPREDGPSPKLALWLPSPAPTAAPTALGEAGLAEHSQRDDRWLLVALLVPTCVFLVVLLALGIVYCTRCGPHAPNKRITDCYRWVIHAGSKSPTEPMPPRGSLTGVQTCRTSV
notes: Endogenous on A673 and SK-N-AS cells, or full length hTEM1 ORF (NM_020404.3) in pTagGFP2-N transiently expressed in HEK293T cells; also called hTEM1; human TEM1

Test [1] deals with T1, anti-TEM1 scFv-Fc fusion 3B6.
T1 construct: also called 3B6 scFv-Fc
Description: FACS, scFv-Fc 2 µg/ml on human and murine cell lines. As to the method: (§1) A673, human Ewing's sarcoma; SK-N-AS, human neuroblastoma; 2H11, murine tumor vascular endothelium; TC1, murine lung adenocarcinoma; HEK293-6E, human embryonic kidney; HT-1080, human fibrosarcoma; MDA-MB-231, human mammary carcinoma; MS1, murine pancreatic islet endothelium.
(§2) Adherent cells were detached using 10 mM EDTA, counted and resuspended in fresh, complete culture medium. All subsequent steps were performed on ice. […] After washing three times with FACS buffer, the secondary antibody, Alexa Fluor 647 AffiniPure Goat Anti-Human IgG (Jackson Immunoresearch, #109-605-098, 1:200 dilution) was added. Following incubation for 30 min the cells were washed again three times. Immediately before data acquisition, dead cells were stained with 4′,6-Diamidino-2-phenylindole (DAPI, 1:2000 dilution). Data was acquired using an LSR-II flow cytometer equipped with […] software (BD Biosciences). Data analysis and plotting were carried out using FlowJo v10 (FlowJo LLC).
For orientation: In flow cytometry, cells or beads pass a laser one at a time.

Test [2] deals with B3. Description: FACS on cell lines. As to the method: as §1, §2
The target of test [3] is B1. Kind of test: FACS, scFv-Fc 2 µg/ml on human and murine cell lines. How it is done: as §1, §2
In test [4] the target is T1, anti-TEM1 scFv-Fc fusion 3B6. Kind of test: FACS on cell lines. As to the method: as §1, §2

T1 sequence (VH, as listed by the source, chain 1 of 2): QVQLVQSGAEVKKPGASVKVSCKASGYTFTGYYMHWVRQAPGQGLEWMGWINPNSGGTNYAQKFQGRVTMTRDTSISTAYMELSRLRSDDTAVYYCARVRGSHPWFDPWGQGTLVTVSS
T1 sequence (VL, as listed by the source, chain 2 of 2): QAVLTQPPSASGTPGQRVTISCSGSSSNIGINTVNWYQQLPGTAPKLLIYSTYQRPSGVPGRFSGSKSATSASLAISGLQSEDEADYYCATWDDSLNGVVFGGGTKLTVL

On to B1, for which, in test [1], the binding result is listed as “binds”.

B2: anti-TEM1 scFv-Fc fusion 2B11 (Fc fusion)
VH: EVQLVETGGGLVKPGGSLRLSCAASGFTFNTYTMNWVRQAPGKGLEWVSSISSSSTYIYYADSVKGRFTISRDNAKNSLYLQMNSLRAEDTAVYYCAKSIVGATHDAFDIWGQGTMVTVSS
VL: DIQMTQSPPTLSASVGDRVTITCRASQSISRWLAWYQQKPGKAPNLLIYDASNLQSGVPSRFSGSGSGTEFTLTISSLQPDDFGTYYCQQYKNYSPTFGQGTKLEIK
notes: also called 2B11 scFv-Fc
Turning to B2, the binding result in test [2] and in test [3] was “binds” throughout. B3: in test [4], the binding result is reported as “binds”.
